# Assay results taken from the supplement of paper PMC9112550, “Optimization of the antimicrobial peptide Bac7 by deep mutational scanning” (BMC Biology, 2022).
# System: Escherichia coli TOP10
# Assay: shrunken log2 fold change of peptide-encoding DNA abundance (4.5 h post-induction vs induction); higher = less antimicrobial activity (less host growth inhibition)
# Conditions: time post-induction: 4.5 h; library: site-saturation at positions 5, 18, 19, 20
# 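Further: peptides expressed intracellularly from a pBAD plasmid library in pooled LB shake-flask culture, induced with 0.3% L-arabinose, DNA abundance read by NGS, three biological replicates, DESeq2 with apeglm shrinkage.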
row,Sequence,shrunken log2 fold change
1,RRIRCRPPRLPRPRPRPPDKPRP,0.0264
2,RRIRFRPPRLPRPRPRPWWPPRP,0.0712
3,RRIRQRPPRLPRPRPRPPMDPRP,-0.0321
4,RRIRKRPPRLPRPRPRPCSWPRP,0.123
5,RRIRYRPPRLPRPRPRPNECPRP,0.0256
6,RRIRCRPPRLPRPRPRPGAQPRP,0.312
7,RRIRWRPPRLPRPRPRPVSEPRP,0.0771
8,RRIRFRPPRLPRPRPRPCWCPRP,-0.00345
9,RRIRGRPPRLPRPRPRPNCHPRP,0.415
10,RRIRMRPPRLPRPRPRPTQCPRP,0.00706
11,RRIRQRPPRLPRPRPRPFLMPRP,-0.421
12,RRIRGRPPRLPRPRPRPRDTPRP,0.649
13,RRIRLRPPRLPRPRPRPWTGPRP,-0.0428
14,RRIRGRPPRLPRPRPRPKFAPRP,0.684
15,RRIRNRPPRLPRPRPRPISYPRP,-0.029
16,RRIRYRPPRLPRPRPRPTILPRP,-0.521
17,RRIRRRPPRLPRPRPRPCVAPRP,0.261
18,RRIRDRPPRLPRPRPRPLYNPRP,-0.321
19,RRIRLRPPRLPRPRPRPEGCPRP,0.191
20,RRIRRRPPRLPRPRPRPIQEPRP,0.0641
21,RRIRERPPRLPRPRPRPLGCPRP,-0.166
22,RRIRNRPPRLPRPRPRPMTSPRP,-0.0113
23,RRIRTRPPRLPRPRPRPEVHPRP,0.00869
24,RRIRSRPPRLPRPRPRPGNFPRP,0.00825
25,RRIRVRPPRLPRPRPRPSSPPRP,-0.269

row,Sequence,shrunken log2 fold change
1,RRIRARPPRLPRPRPRPSVTPRP,0.0595
2,RRIRARPPRLPRPRPRPMVHPRP,0.0572
3,RRIRHRPPRLPRPRPRPKQVPRP,-0.482
4,RRIRFRPPRLPRPRPRPSIHPRP,-0.84
5,RRIRHRPPRLPRPRPRPQFQPRP,-0.511
6,RRIRARPPRLPRPRPRPVEFPRP,0.108
7,RRIRYRPPRLPRPRPRPCYCPRP,-0.185
8,RRIRTRPPRLPRPRPRPDWQPRP,-0.0206
9,RRIRVRPPRLPRPRPRPAPGPRP,0.472
10,RRIRARPPRLPRPRPRPNIWPRP,0.133
11,RRIRCRPPRLPRPRPRPPHHPRP,0.352
12,RRIRSRPPRLPRPRPRPPDGPRP,0.447
13,RRIRTRPPRLPRPRPRPAIEPRP,0.0358
14,RRIRMRPPRLPRPRPRPYTSPRP,-0.265
15,RRIRIRPPRLPRPRPRPTWPPRP,0.368
16,RRIRPRPPRLPRPRPRPIYRPRP,-0.158
17,RRIRMRPPRLPRPRPRPVDSPRP,0.216
18,RRIRHRPPRLPRPRPRPEVIPRP,0.0357
19,RRIRFRPPRLPRPRPRPSCRPRP,-0.145
20,RRIRQRPPRLPRPRPRPIESPRP,-0.181
21,RRIRQRPPRLPRPRPRPYHKPRP,0.0375
22,RRIRQRPPRLPRPRPRPTHEPRP,0.881
23,RRIRWRPPRLPRPRPRPEIWPRP,1
24,RRIRIRPPRLPRPRPRPAFTPRP,0.106
25,RRIRTRPPRLPRPRPRPNTEPRP,-0.011

row,Sequence,shrunken log2 fold change
1,RRIRNRPPRLPRPRPRPLCSPRP,-0.0294
2,RRIRRRPPRLPRPRPRPPTLPRP,0.739
3,RRIRMRPPRLPRPRPRPRHMPRP,0.418
4,RRIRGRPPRLPRPRPRPFVIPRP,0.215
5,RRIRARPPRLPRPRPRPWIDPRP,-0.0113
6,RRIRERPPRLPRPRPRPYSWPRP,-0.486
7,RRIRRRPPRLPRPRPRPRALPRP,0.482
8,RRIRVRPPRLPRPRPRPQWQPRP,0.0741
9,RRIRDRPPRLPRPRPRPAFTPRP,-0.155
10,RRIRDRPPRLPRPRPRPHAHPRP,0.0605
11,RRIRDRPPRLPRPRPRPKMQPRP,0.247
12,RRIRSRPPRLPRPRPRPFRVPRP,0.166
13,RRIRHRPPRLPRPRPRPINQPRP,-0.243
14,RRIRPRPPRLPRPRPRPGTRPRP,0.134
15,RRIRHRPPRLPRPRPRPPSAPRP,0.496
16,RRIRCRPPRLPRPRPRPPMNPRP,-0.0519
17,RRIRTRPPRLPRPRPRPMAYPRP,0.0358
18,RRIRWRPPRLPRPRPRPHHSPRP,-0.667
19,RRIRVRPPRLPRPRPRPSQTPRP,0.112
20,RRIRYRPPRLPRPRPRPGTAPRP,-0.39
21,RRIRHRPPRLPRPRPRPYRCPRP,0.0121
22,RRIRTRPPRLPRPRPRPAQFPRP,-0.0946
23,RRIRFRPPRLPRPRPRPTSIPRP,-0.296
24,RRIRYRPPRLPRPRPRPNYLPRP,-0.161
25,RRIRLRPPRLPRPRPRPPDLPRP,0.169

row,Sequence,shrunken log2 fold change
1,RRIRRRPPRLPRPRPRPQQDPRP,0.0793
2,RRIRMRPPRLPRPRPRPQAEPRP,3.28
3,RRIRHRPPRLPRPRPRPFNWPRP,-0.194
4,RRIRVRPPRLPRPRPRPIENPRP,-0.229
5,RRIRKRPPRLPRPRPRPVQEPRP,0.0683
6,RRIRKRPPRLPRPRPRPCASPRP,0.0419
7,RRIRKRPPRLPRPRPRPPAGPRP,0.989
8,RRIRARPPRLPRPRPRPYFPPRP,-0.418
9,RRIRVRPPRLPRPRPRPIWSPRP,0.0334
10,RRIRYRPPRLPRPRPRPPMVPRP,-0.35
11,RRIRFRPPRLPRPRPRPLTGPRP,-0.196
12,RRIRQRPPRLPRPRPRPNEAPRP,-0.0868
13,RRIRSRPPRLPRPRPRPFFKPRP,-0.192
14,RRIRDRPPRLPRPRPRPRIGPRP,-0.00724
15,RRIRKRPPRLPRPRPRPHINPRP,-0.124
16,RRIRGRPPRLPRPRPRPEGAPRP,1.49
17,RRIRCRPPRLPRPRPRPDLNPRP,0.127
18,RRIRWRPPRLPRPRPRPCFTPRP,-0.0397
19,RRIRWRPPRLPRPRPRPNPPPRP,0.206
20,RRIRHRPPRLPRPRPRPAFMPRP,-0.193
21,RRIRPRPPRLPRPRPRPFRSPRP,-0.152
22,RRIRIRPPRLPRPRPRPMQAPRP,-0.00238
23,RRIRGRPPRLPRPRPRPTSAPRP,0.855
24,RRIRMRPPRLPRPRPRPNALPRP,0.313
25,RRIRQRPPRLPRPRPRPAKVPRP,0.325

row,Sequence,shrunken log2 fold change
1,RRIRARPPRLPRPRPRPKRCPRP,0.079
2,RRIRMRPPRLPRPRPRPYHSPRP,-0.0421
3,RRIRQRPPRLPRPRPRPMMQPRP,-0.313
4,RRIRNRPPRLPRPRPRPTEVPRP,-0.268
5,RRIRPRPPRLPRPRPRPTDKPRP,0.0429
6,RRIRLRPPRLPRPRPRPKNDPRP,-0.563
7,RRIRCRPPRLPRPRPRPEAWPRP,0.976
8,RRIRDRPPRLPRPRPRPLRTPRP,0.215
9,RRIRNRPPRLPRPRPRPQCFPRP,0.242
10,RRIRMRPPRLPRPRPRPRHNPRP,-0.0227
11,RRIRVRPPRLPRPRPRPQCKPRP,-0.129
12,RRIRRRPPRLPRPRPRPVPHPRP,0.449
13,RRIRWRPPRLPRPRPRPCQAPRP,0.201
14,RRIRYRPPRLPRPRPRPSEGPRP,0.0169
15,RRIRARPPRLPRPRPRPVPWPRP,0.452
16,RRIRYRPPRLPRPRPRPSWTPRP,-1.11
17,RRIRRRPPRLPRPRPRPKMEPRP,0.282
18,RRIRQRPPRLPRPRPRPIEGPRP,0.0763
19,RRIRDRPPRLPRPRPRPCQTPRP,0.00442
20,RRIRIRPPRLPRPRPRPDKKPRP,-0.0638
21,RRIRGRPPRLPRPRPRPRACPRP,0.847
22,RRIRQRPPRLPRPRPRPYYEPRP,-0.172
23,RRIRIRPPRLPRPRPRPKAWPRP,0.0719
24,RRIRLRPPRLPRPRPRPAMCPRP,0.059
25,RRIRYRPPRLPRPRPRPETEPRP,0.0184

row,Sequence,shrunken log2 fold change
1,RRIRARPPRLPRPRPRPVLWPRP,2.26
2,RRIRSRPPRLPRPRPRPCSGPRP,-0.0317
3,RRIRDRPPRLPRPRPRPTNMPRP,-0.00949
4,RRIRMRPPRLPRPRPRPCMEPRP,0.112
5,RRIRERPPRLPRPRPRPSREPRP,0.125
6,RRIRWRPPRLPRPRPRPKLAPRP,1.03
7,RRIRERPPRLPRPRPRPVKIPRP,-0.181
8,RRIRDRPPRLPRPRPRPDYLPRP,0.0544
9,RRIRQRPPRLPRPRPRPSTDPRP,-0.468
10,RRIRWRPPRLPRPRPRPVGFPRP,0.558
11,RRIRMRPPRLPRPRPRPEFAPRP,0.679
12,RRIRLRPPRLPRPRPRPIVQPRP,-1.06
13,RRIRVRPPRLPRPRPRPYRYPRP,-0.228
14,RRIRDRPPRLPRPRPRPALGPRP,0.933
15,RRIRKRPPRLPRPRPRPREQPRP,0.609
16,RRIRYRPPRLPRPRPRPPLEPRP,0.119
17,RRIRQRPPRLPRPRPRPTDIPRP,-0.0659
18,RRIRIRPPRLPRPRPRPPRHPRP,0.166
19,RRIRDRPPRLPRPRPRPGIYPRP,-0.15
20,RRIRWRPPRLPRPRPRPAEFPRP,0.292
21,RRIRVRPPRLPRPRPRPHHEPRP,-0.582
22,RRIRRRPPRLPRPRPRPWKQPRP,-0.0204
23,RRIRSRPPRLPRPRPRPDLVPRP,0.0452
24,RRIRIRPPRLPRPRPRPFAEPRP,-0.221
25,RRIRYRPPRLPRPRPRPDSSPRP,-0.0431
